Assay results reported in US9187525B2, “Methods of treating ophthalmic diseases using NPR-B agonists” (Shire Orphan Therapies GmbH, dated 2015).
Numbered stars: 1 amine (or outer) side, 2 acyl side, 3 side chain; on linkers, the order of the positions; unused ones are H or OH. Square brackets hold non-standard residues; d marks the D form. * marks the point of attachment. cDR = (S)-2-((S)-3-(carboxymethyl)-2-oxopiperazin-1-yl)-5-guanidinopentanoic acid, N=C(N)NCCC[C@@H](C(=O)[*:2])N1CCN([*:1])[C@@H](CC(=O)[*:3])C1=O; Bhp = (2S,4R)-4-(benzyloxy)pyrrolidine-2-carboxylic acid, O=C([C@@H]1C[C@@H](OCc2ccccc2)CN1[*:1])[*:2]; ctb = (S)-2-amino-3-(tert-butylthio)propanoic acid, CC(C)(C)SC[C@@H](N[*:1])C(=O)[*:2]; Npl = (S)-4-methyl-2-(propylamino)pentanoic acid, CCCN([C@@H](CC(C)C)C(=O)[*:2])[*:1]; Sni = (S)-nipecotic acid, O=C([C@H]1CCCN([*:1])C1)[*:2]; Pro(trans-4-F) = O=C(O)[C@@H]1C[C@@H](F)CN1; Phe(4-Br) = N[C@@H](Cc1ccc(Br)cc1)C(=O)O; Phe(4-Cl) = N[C@@H](Cc1ccc(Cl)cc1)C(=O)O; Phe(4-Me) = Cc1ccc(C[C@H](N)C(=O)O)cc1; Hyp = O=C(O)[C@@H]1C[C@@H](O)CN1; NMeF = CN[C@@H](Cc1ccccc1)C(=O)O; dAgb = N=C(N)NCC[C@@H](N)C(=O)O; dAoc(2) = CCCCCC[C@@H](N)C(=O)O; Aoc(2) = CCCCCC[C@H](N)C(=O)O; NMeL = CN[C@@H](CC(C)C)C(=O)O; dNle = CCCC[C@@H](N)C(=O)O; dOrn = NCCC[C@@H](N)C(=O)O; dDab = NCC[C@@H](N)C(=O)O; dNva = CCC[C@@H](N)C(=O)O; dPip = O=C(O)[C@H]1CCCCN1; Octanoyl = CCCCCCCC(=O)*; Hexanoyl = CCCCCC(=O)*

T1: natriuretic peptide receptor-B (human)
T1 chain: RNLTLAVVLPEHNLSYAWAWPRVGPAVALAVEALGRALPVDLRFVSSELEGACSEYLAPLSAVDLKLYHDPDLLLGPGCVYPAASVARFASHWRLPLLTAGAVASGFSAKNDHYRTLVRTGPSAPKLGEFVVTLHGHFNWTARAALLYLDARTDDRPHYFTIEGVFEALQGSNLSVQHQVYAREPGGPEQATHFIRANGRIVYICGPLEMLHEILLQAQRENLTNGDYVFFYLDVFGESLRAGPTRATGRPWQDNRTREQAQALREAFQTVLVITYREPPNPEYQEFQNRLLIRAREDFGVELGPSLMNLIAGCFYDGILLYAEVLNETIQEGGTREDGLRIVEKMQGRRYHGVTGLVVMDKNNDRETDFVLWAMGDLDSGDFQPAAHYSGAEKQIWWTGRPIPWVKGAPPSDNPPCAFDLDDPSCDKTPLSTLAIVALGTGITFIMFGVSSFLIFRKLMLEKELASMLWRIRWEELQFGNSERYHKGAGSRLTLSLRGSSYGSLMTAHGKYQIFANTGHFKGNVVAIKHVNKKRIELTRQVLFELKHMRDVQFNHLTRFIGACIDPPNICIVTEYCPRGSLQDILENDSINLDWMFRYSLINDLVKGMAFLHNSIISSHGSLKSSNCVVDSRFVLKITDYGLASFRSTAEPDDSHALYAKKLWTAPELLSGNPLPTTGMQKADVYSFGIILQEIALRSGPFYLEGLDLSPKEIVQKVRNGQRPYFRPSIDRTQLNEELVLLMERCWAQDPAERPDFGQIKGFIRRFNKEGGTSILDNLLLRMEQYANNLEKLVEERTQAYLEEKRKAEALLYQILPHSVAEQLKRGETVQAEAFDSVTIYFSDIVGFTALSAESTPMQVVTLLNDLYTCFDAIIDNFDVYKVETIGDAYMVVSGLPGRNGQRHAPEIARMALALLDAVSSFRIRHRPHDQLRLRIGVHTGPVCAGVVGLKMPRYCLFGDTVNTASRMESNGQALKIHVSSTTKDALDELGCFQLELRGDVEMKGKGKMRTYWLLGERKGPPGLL

B1: JAL-1078 (peptide)
peptide: Octanoyl-XF[dR]LP[NMeL]DRI-NH2
modifications: not fully specified (some residues); printed as Occ-pip-Phe-arg-Leu-Pro-Nml-Asp-Arg-Ile-NH2
B2: JAL-1077 (peptide)
peptide: Octanoyl-X[NMeF][dR]LP[NMeL]DRI-NH2
modifications: not fully specified (some residues); printed as Occ-pip-Nmf-arg-Leu-Pro-Nml-Asp-Arg-Ile-NH2
B3: JAL-1087 (peptide)
peptide: Octanoyl-XF[dR]L[Hyp][NMeL]DRI-NH2
modifications: not fully specified (some residues); printed as Occ-pip-Phe-arg-Leu-Hyp-Nml-Asp-Arg-Ile-NH2

Target: T1, natriuretic peptide receptor-B
Experiment: cell-based or functional assay

Binder | EC50 group, cGMP in GTM-3 cells
Octanoyl-[Sni]F[dNle]L[Hyp]LDRI-NH2 [JAL-1024] | ≤ 1 µM
Octanoyl-[dA]FGL[Bhp]LDRI-NH2 [JAL-1038] | ≤ 15 µM
Octanoyl-[dA]F[dR]LP[NMeL]DRI-NH2 [JAL-1075] | ≤ 5 µM
Octanoyl-[dA][Phe(4-Me)][dL]L[Hyp]LDRI-NH2 [JAL-1051] | ≤ 5 µM
Octanoyl-[dP]F[dL]L[Hyp]LDRI-NH2 [JAL-1053] | ≤ 1 µM
XXAFGLKLDRIS (Hex-Ebe-ala-Phe-Gly-Leu-Lys-Leu-Asp-Arg-Ile-Ser-NH2) [JAL-0540] | ≤ 15 µM
Octanoyl-[dA]F[dL]L[Hyp]LDRI-NH2 [JAL-1026] | ≤ 5 µM
Octanoyl-[dA]F[dF]L[Hyp]LDRI-NH2 [JAL-1028] | ≤ 5 µM
Octanoyl-[dA]F[dL]L[Hyp][NMeL]DRI-NH2 [JAL-1042] | ≤ 1 µM
Octanoyl-[dA][NMeF][dL]L[Hyp]LDRI-NH2 [JAL-1052] | ≤ 1 µM
Octanoyl-[dA]FGL[Pro(trans-4-F)]LDRI-NH2 [JAL-1115] | ≤ 5 µM
Octanoyl-[dA][Phe(4-Cl)][dL]L[Hyp][NMeL]DRI-NH2 [JAL-1043] | ≤ 1 µM
Octanoyl-[dA]F[dK]LPLDRI-NH2 [JAL-1030] | ≤ 5 µM
Octanoyl-[dA]F[dAgb]LPLDRI-NH2 [JAL-1121] | ≤ 5 µM
Octanoyl-[dA]FGLPL[cDR]I-NH2 [JAL-1037] | ≤ 15 µM
Octanoyl-[dA]F[dK]L[Hyp][NMeL]DRI-NH2 [JAL-1060] | ≤ 1 µM
Octanoyl-[dA]F[dD]L[Hyp]LDRI-NH2 [JAL-1048] | ≤ 15 µM
Octanoyl-[dA]F[dK]LP[NMeL]ARI-NH2 [JAL-1068] | ≤ 15 µM
Octanoyl-[dA][NMeF][dR]L[Hyp][NMeL]DRI-NH2 [JAL-1085] | ≤ 1 µM
Hexanoyl-G[dA]FGLKLDRISA-NH2 [JAL-0538] | ≤ 5 µM
Octanoyl-[dA]F[dDab]LPLDRI-NH2 [JAL-1120] | ≤ 5 µM
Octanoyl-[dA]F[dNva]L[Hyp]LDRI-NH2 [JAL-1027] | ≤ 5 µM
Octanoyl-[dA][Phe(4-Br)][dR]L[Hyp]LDRI-NH2 [JAL-1116] | ≤ 1 µM
Octanoyl-[dPip]F[dL]L[Hyp]LDRI-NH2 [JAL-1054] | ≤ 1 µM

Binder | EC50 group, cGMP in GTM-3 cells
Hexanoyl-G[dA]FGLKLDRISG-NH2 [JAL-0539] | ≤ 5 µM
Octanoyl-[Sni]F[dL]L[Hyp][NMeL]DRI-NH2 [JAL-1041] | ≤ 1 µM
Octanoyl-[Sni]F[dL]LP[NMeL]DRI-NH2 [JAL-1040] | ≤ 1 µM
Octanoyl-[dA]FGLP[Npl]DRI-NH2 [JAL-1045] | ≤ 15 µM
B1 | ≤ 1 µM
Octanoyl-[dA]F[dK]LP[NMeL]DRI-NH2 [JAL-1065] | ≤ 5 µM
Octanoyl-[dA]F[dNle]L[Hyp][NMeL]DRI-NH2 [JAL-1044] | ≤ 1 µM
Octanoyl-[dA]F[dNle]L[Hyp]LDRI-NH2 [JAL-1025] | ≤ 5 µM
B2 | ≤ 1 µM
Ac-[dAoc(2)][dA][dA]FGLPLDRI-NH2 [JAL-1034] | ≤ 5 µM
Octanoyl-[dA]F[dR]L[Pro(trans-4-F)]LDRI-NH2 [JAL-1114] | ≤ 5 µM
Octanoyl-[dPip]FGLPLDRI-NH2 [JAL-1035] | ≤ 15 µM
Octanoyl-[dA]F[dL]LP[NMeL]DRI-NH2 [JAL-1039] | ≤ 1 µM
Ac-[Aoc(2)][dA][dA]FGLPLDRI-NH2 [JAL-1033] | ≤ 5 µM
Octanoyl-[dA]F[dR]L[Hyp][NMeL]DRI-NH2 [JAL-1086] | ≤ 1 µM
Octanoyl-[dA]F[dR]LPLDRI-NH2 [JAL-1031] | ≤ 5 µM
Octanoyl-[dA]F[ctb]L[Hyp]LDRI-NH2 [JAL-1029] | ≤ 5 µM
Octanoyl-[dA]F[dH]LPLDRI-NH2 [JAL-1032] | ≤ 5 µM
Octanoyl-[dA]F[dOrn]L[Hyp][NMeL]DRI-NH2 [JAL-1061] | ≤ 1 µM
Octanoyl-[dA]F[dR]L[Hyp]LDRI-NH2 [JAL-1047] | ≤ 1 µM
Octanoyl-[dA][NMeF][dR]LP[NMeL]DRI-NH2 [JAL-1076] | ≤ 5 µM
B3 | ≤ 1 µM
Octanoyl-[dA][Phe(4-Cl)][dL]L[Hyp]LDRI-NH2 [JAL-1050] | ≤ 1 µM
